Measurements: patent US20210155689A1 (SHANGHAI PHARMAEXPLORER, published 2021)

Key:
[1] = target: T1, human LAG-3 on cells (HEK293-hLAG-3 stable cell line) (human, UniProt P18627 23-525); assay: FACS, HEK293-hLAG-3, antibody 0.013 nM
T1 sequence: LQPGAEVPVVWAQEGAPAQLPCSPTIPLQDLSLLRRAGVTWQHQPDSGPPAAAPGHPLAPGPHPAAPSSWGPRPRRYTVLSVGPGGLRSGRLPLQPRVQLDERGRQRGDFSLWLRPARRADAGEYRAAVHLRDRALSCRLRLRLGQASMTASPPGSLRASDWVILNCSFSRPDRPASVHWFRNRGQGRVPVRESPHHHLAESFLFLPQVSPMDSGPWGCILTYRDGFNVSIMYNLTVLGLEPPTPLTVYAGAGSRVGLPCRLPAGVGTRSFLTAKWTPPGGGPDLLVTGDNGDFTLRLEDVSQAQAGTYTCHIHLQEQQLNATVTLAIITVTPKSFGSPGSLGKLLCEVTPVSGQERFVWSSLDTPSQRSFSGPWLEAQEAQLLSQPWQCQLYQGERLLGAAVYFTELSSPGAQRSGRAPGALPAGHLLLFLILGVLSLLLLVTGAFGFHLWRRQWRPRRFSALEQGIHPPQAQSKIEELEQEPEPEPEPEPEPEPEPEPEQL

[2] = target: T1, human LAG-3 on cells (HEK293-hLAG-3 …); assay: FACS, HEK293-hLAG-3, antibody 8 nM
[3] = target: T1, human LAG-3 on cells (HEK293-hLAG-3 …); assay: FACS, HEK293-hLAG-3, antibody 0.32 nM
[4] = target: T1, human LAG-3 on cells (HEK293-hLAG-3 …); assay: FACS, HEK293-hLAG-3, antibody 1.6 nM
[5] = target: T1, human LAG-3 on cells (HEK293-hLAG-3 …); assay: FACS, HEK293-hLAG-3, antibody 0.064 nM
[6] = target: T1, human LAG-3 on cells (HEK293-hLAG-3 …); assay: FACS, HEK293-hLAG-3, antibody 0 nM
[7] = target: T1, human LAG-3 on cells (HEK293-hLAG-3 …); assay: FACS, HEK293-hLAG-3, antibody 40 nM
[8] = target: T2, human LAG-3 ECD (antigen protein of the affinity test) (human, UniProt P18627 23-450); assay: SPR, CM5 chip, antibody captured by anti-human Fc IgG, antigen in flow, 1:1 fit
T2 sequence: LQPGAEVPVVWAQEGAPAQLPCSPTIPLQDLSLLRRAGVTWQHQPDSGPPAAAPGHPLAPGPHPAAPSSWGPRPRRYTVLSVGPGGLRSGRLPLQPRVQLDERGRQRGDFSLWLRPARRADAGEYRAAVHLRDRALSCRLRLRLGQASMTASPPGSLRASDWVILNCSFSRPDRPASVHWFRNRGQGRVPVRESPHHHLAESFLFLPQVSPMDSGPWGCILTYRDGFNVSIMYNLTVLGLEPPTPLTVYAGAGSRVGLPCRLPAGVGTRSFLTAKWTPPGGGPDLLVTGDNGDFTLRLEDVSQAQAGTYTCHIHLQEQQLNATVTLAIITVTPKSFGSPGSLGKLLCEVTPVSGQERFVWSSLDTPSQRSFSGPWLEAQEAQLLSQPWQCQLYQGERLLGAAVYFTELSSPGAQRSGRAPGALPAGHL
Method: (§1) First, anti-human Fc IgG was immobilized on the surface of the CM5 chip to 6000-10000 RU by amino coupling method, with FC1 as the reference channel. The coupling process was as follows: a freshly prepared 1:1 mixture of 50 mM NHS and 200 mM EDC was activated for 7 minutes, then injected with 10-50 ug/ml anti-human Fc IgG diluted in 10 mM sodium acetate ph5.0 buffer. The remaining activated sites were blocked with 1M ethanolamine. Then, HBS-EP+ buffer was used to dilute the antibody to be tested to 5 ug/ml (adjustable according to the capture level) and the antibodies were captured on the chip at a flow rate of 10 ul/min to obtain a response value of about 100˜300 RU. Then the antigen protein was diluted to 100 nM (the highest concentration was tentatively 100 nM), and flew through the chip surface at a flow rate of 30 ul/min. If enough signal value was obtained, the antigen-protein was diluted by several concentration gradients, and flew through the chip surface respectively. At the end of each cycle, the chip surface was regenerated with 10 mM Glycine at pH 1.5. The kinetic rate constant needed to be subtracted from the blank control, and the data was fitted with the global fit analysis method 1:1 combination model. The dissociation equilibrium rate constant (KD) was calculated according to the following formula: KD=kd/ka.

[9] = target: T3, human LAG-3 ECD (antigen protein of the affinity test) (human, UniProt P18627 23-450); assay: SPR (CM5 chip), antibody captured by anti-human Fc IgG, antigen protein in flow, 1:1 model
T3 sequence: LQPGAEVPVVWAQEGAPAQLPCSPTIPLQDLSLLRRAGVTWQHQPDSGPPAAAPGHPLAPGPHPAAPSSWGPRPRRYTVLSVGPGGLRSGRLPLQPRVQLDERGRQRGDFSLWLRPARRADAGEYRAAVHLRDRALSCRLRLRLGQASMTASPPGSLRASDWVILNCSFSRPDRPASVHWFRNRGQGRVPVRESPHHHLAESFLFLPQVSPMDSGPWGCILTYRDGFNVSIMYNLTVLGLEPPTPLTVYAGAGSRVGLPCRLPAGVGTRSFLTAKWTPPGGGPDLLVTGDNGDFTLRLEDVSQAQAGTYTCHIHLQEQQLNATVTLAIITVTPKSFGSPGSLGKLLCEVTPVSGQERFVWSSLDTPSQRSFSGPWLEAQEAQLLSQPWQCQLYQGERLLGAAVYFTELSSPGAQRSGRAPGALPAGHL
Method: as §1
The method was the same as that in Example 5.

B1: 556F6B8-5 humanized antibody (antibody, V domains shown)
VH: QVQLQESGPGLVKPSETLSLTCTVSGGSISKYGVHWIRQPPGKGLEWIGVIWRGGITDYNAAFMSRVTISVDTSKNQFSLKLSSVTAADTAVYYCARWDGPLAMDYWGQGTTVTVSS
VL: DIVLTQSPSFLSASVGDRVTITCKASQDVGTTVAWYQQKPGKAPKLLIYWASTRHTGVPSRFSGSGSGTEFTLTISSLQPEDFATYYCQQYSSYPYTFGQGTKLEIK
Mean fluorescence intensity [1]: 4 | Mean fluorescence intensity [2]: 16 | Mean fluorescence intensity [3]: 5 | Mean fluorescence intensity [4]: 8 | Mean fluorescence intensity [5]: 4 | Mean fluorescence intensity [6]: 4 | Mean fluorescence intensity [7]: 32

B2: 556F6B8-3 humanized antibody (antibody, V domains shown)
VH: QVQLQESGPGLVKPSETLSLTCTVSGFSLIKYGVHWIRQPPGKGLEWIGVIWRGGITDYNAAFMSRVTISKDTSKSQVSLKLSSVTAADTAVYYCARWDGPLAMDYWGQGTTVTVSS
VL: DIQLTQSPSFLSASVGDRVTITCKASQDVGTTVAWYQQKPGKAPKLLIYWASTRHTGVPSRFSGSGSGTEFTLTISSLQPEDFATYYCQQYSSYPYTFGQGTKLEIK
Mean fluorescence intensity [1]: 10 | Mean fluorescence intensity [2]: 94 | Mean fluorescence intensity [3]: 49 | Mean fluorescence intensity [4]: 83 | Mean fluorescence intensity [5]: 21 | Mean fluorescence intensity [6]: 4 | Kd [8]: 3.31 nM | koff [8]: 0.000465 s⁻¹ | kon [8]: 141000 M⁻¹ s⁻¹ | Mean fluorescence intensity [7]: 98

B3: 556F6B8-10 humanized antibody (antibody, V domains shown)
VH: QVQLQESGPGLVKPSETLSLTCTVSGFSIIKYGVHWIRQPPGKGLEWIGVIWRGGITDYNAAFMSRVTISVDTSKNQFSLKLSSVTAADTAVYYCARWDGPLAMDYWGQGTTVTVSS
VL: DIVLTQSPSFLSASVGDRVTITCKASQDVGTTVAWYQQKPGKSPKLLIYWASTRHTGVPSRFSGSGSGTEFTLTISSLQPEDFATYYCQQYSSYPYTFGQGTKLEIK
Mean fluorescence intensity [1]: 4 | Mean fluorescence intensity [2]: 44 | Mean fluorescence intensity [3]: 11 | Mean fluorescence intensity [4]: 27 | Mean fluorescence intensity [5]: 6 | Mean fluorescence intensity [6]: 4 | Mean fluorescence intensity [7]: 54

B4: 556F6B8-12 humanized antibody (antibody, V domains shown)
VH: RVQLQESGPGLVKPSETLSLTCTVSGFSLIKYGVHWIRQPPGKGLEWIGVIWRGGITDYNAAFMSRVTISKDTSKSQVSLKLSSVTAADTAVYYCAKWDGPLAMDYWGQGTTVTVSS
VL: DIVLTQSPSFLSASVGDRVTITCKASQDVGTTVAWYQQKPGKSPKLLIYWASTRHTGVPSRFSGSGSGTEFTLTISSLQPEDFATYYCQQYSSYPYTFGQGTKLEIK
Mean fluorescence intensity [1]: 8 | Mean fluorescence intensity [2]: 83 | Mean fluorescence intensity [3]: 36 | Mean fluorescence intensity [4]: 70 | Mean fluorescence intensity [5]: 15 | Mean fluorescence intensity [6]: 4 | Mean fluorescence intensity [7]: 87

B5: 556F6B8-11 humanized antibody (antibody, V domains shown)
VH: QVQLQESGPGLVKPSETLSLTCTVSGFSLIKYGVHWIRQPPGKGLEWIGVIWRGGITDYNAAFMSRVTISKDTSKSQVSLKLSSVTAADTAVYYCARWDGPLAMDYWGQGTTVTVSS
VL: DIVLTQSPSFLSASVGDRVTITCKASQDVGTTVAWYQQKPGKSPKLLIYWASTRHTGVPSRFSGSGSGTEFTLTISSLQPEDFATYYCQQYSSYPYTFGQGTKLEIK
Mean fluorescence intensity [1]: 9 | Mean fluorescence intensity [2]: 97 | Mean fluorescence intensity [3]: 51 | Mean fluorescence intensity [4]: 87 | Mean fluorescence intensity [5]: 20 | Mean fluorescence intensity [6]: 4 | Mean fluorescence intensity [7]: 100

B6: 556F6B8-9 humanized antibody (antibody, V domains shown)
VH: QVQLQESGPGLVKPSETLSLTCTVSGGSISKYGVHWIRQPPGKGLEWIGVIWRGGITDYNAAFMSRVTISVDTSKNQFSLKLSSVTAADTAVYYCARWDGPLAMDYWGQGTTVTVSS
VL: DIVLTQSPSFLSASVGDRVTITCKASQDVGTTVAWYQQKPGKSPKLLIYWASTRHTGVPSRFSGSGSGTEFTLTISSLQPEDFATYYCQQYSSYPYTFGQGTKLEIK
Mean fluorescence intensity [1]: 4 | Mean fluorescence intensity [2]: 18 | Mean fluorescence intensity [3]: 5 | Mean fluorescence intensity [4]: 9 | Mean fluorescence intensity [5]: 4 | Mean fluorescence intensity [6]: 4 | Mean fluorescence intensity [7]: 33

B7: 556F6B8-7 humanized antibody (antibody, V domains shown)
VH: QVQLQESGPGLVKPSETLSLTCTVSGFSLIKYGVHWIRQPPGKGLEWIGVIWRGGITDYNAAFMSRVTISKDTSKSQVSLKLSSVTAADTAVYYCARWDGPLAMDYWGQGTTVTVSS
VL: DIVLTQSPSFLSASVGDRVTITCKASQDVGTTVAWYQQKPGKAPKLLIYWASTRHTGVPSRFSGSGSGTEFTLTISSLQPEDFATYYCQQYSSYPYTFGQGTKLEIK
Mean fluorescence intensity [1]: 8 | Mean fluorescence intensity [2]: 93 | Mean fluorescence intensity [3]: 44 | Mean fluorescence intensity [4]: 79 | Mean fluorescence intensity [5]: 18 | Mean fluorescence intensity [6]: 4 | Kd [8]: 3.25 nM | koff [8]: 0.000453 s⁻¹ | kon [8]: 139000 M⁻¹ s⁻¹ | Mean fluorescence intensity [7]: 98

B8: 556F6B8-8 humanized antibody (antibody, V domains shown)
VH: RVQLQESGPGLVKPSETLSLTCTVSGFSLIKYGVHWIRQPPGKGLEWIGVIWRGGITDYNAAFMSRVTISKDTSKSQVSLKLSSVTAADTAVYYCAKWDGPLAMDYWGQGTTVTVSS
VL: DIVLTQSPSFLSASVGDRVTITCKASQDVGTTVAWYQQKPGKAPKLLIYWASTRHTGVPSRFSGSGSGTEFTLTISSLQPEDFATYYCQQYSSYPYTFGQGTKLEIK
Mean fluorescence intensity [1]: 8 | Mean fluorescence intensity [2]: 79 | Mean fluorescence intensity [3]: 36 | Mean fluorescence intensity [4]: 64 | Mean fluorescence intensity [5]: 15 | Mean fluorescence intensity [6]: 4 | Mean fluorescence intensity [7]: 83

B9: 405B8H3 mouse-human chimeric antibody (antibody, V domains shown)
VH: QVQLQQSGAELVRPGASVTLSCKASGYTFTDYEMHWVKQTPVHGLEWIGATDPETGNSAYNQKFKGKAIMTADKSSSTAYMELRSLTSEDSAVYYCISTGWNDWGQGTSLTVSS
VL: DIKMTQSPSSMYASLGERVTITCKASQDINSYLSWFQQKPGKSPKTLIYRADRLLDGVPSRFSGSGSGQDYSLTISSLEYGDMGIYYCLQYDEFPYTFGGGTKLEIK
notes: also called mAb103-405B8H3
Kd [9]: 3.11 nM | koff [9]: 0.000164 s⁻¹ | kon [9]: 52800 M⁻¹ s⁻¹

B10: 405B8H3-1 (D→E) hot-spot mutated humanized antibody (antibody, V domains shown)
VH: QVQLVQSGAEVKKPGASVKVSCKASGYTFTDYEMHWVRQAPGQGLEWMGATDPETGNSAYNQKFKGRVTMTRDTSTSTVYMELSSLRSEDTAVYYCISTGWNDWGQGTTVTVSS
VL: DIQMTQSPSSLSASVGDRVTITCKASQDINSYLSWFQQKPGKAPKSLIYRADRLLEGVPSRFSGSGSGTDFTLTISSLQPEDFATYYCLQYDEFPYTFGQGTKLEIK
Kd [9]: 2.03 nM | koff [9]: 0.000158 s⁻¹ | kon [9]: 77500 M⁻¹ s⁻¹
